Measured values: paper PMC2987830

Tests used:
[1] = molecular target: C-terminal truncated Myc-hFcγRIa which lacks the cytoplasmic tail (human) (UniProt P12314); experiment: adhesion of bacteria to transfected cells (total cell associated bacteria); COS-1 monolayers transfected with Myc-hFcγRIa, Myc-hFcγRIa-CT, Myc-hFcγRII or pcDNA3 (mock); E. coli K1 at an MOI of 100, 1.5 h, 37°C; cell associated bacteria plated
[2] = molecular target: FcγRIa of RAW 264.7 cells (mouse (endogenous in RAW 264.7)) (UniProt P26151)
Chain of UniProt P26151 (P26151 25-404): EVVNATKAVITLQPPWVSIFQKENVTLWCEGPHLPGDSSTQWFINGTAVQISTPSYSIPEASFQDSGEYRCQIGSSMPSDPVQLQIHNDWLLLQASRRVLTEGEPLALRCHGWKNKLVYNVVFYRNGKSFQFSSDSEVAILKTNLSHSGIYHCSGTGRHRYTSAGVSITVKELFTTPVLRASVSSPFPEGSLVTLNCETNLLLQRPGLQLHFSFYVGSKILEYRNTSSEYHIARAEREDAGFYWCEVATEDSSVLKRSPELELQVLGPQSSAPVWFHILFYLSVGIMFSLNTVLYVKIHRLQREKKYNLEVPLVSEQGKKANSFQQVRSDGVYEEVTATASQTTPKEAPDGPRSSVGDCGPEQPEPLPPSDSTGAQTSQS

Chain of UniProt P12314 (P12314 16-314): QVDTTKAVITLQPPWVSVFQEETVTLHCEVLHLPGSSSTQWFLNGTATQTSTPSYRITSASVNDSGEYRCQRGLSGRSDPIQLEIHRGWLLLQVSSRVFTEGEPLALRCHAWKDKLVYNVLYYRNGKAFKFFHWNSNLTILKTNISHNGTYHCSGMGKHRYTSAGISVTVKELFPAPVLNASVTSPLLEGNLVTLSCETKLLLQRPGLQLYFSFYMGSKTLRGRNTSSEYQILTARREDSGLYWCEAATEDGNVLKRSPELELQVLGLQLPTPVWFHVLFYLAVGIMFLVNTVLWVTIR

## outer membrane protein A (OmpA) of E. coli K1 (from UniProt P0A910 22-346) (natural protein)
[1]
  decrease of bacterial binding against Myc-hFcγRIa+/COS-1 cells: 30%
[2]
  reduction of intracellular E. coli K1 in RAW 264.7 cells (gentamicin protection assay) by Fab fragments of anti-OmpA antibody or by anti-FcγRI antibody: 80%
